These results are taken from patent publication US7226992B1, “Mutant Bcl-2 proteins and uses thereof” (Abbott Laboratories, priority 2000, dated 2007).

The term Kd denotes the constant that tells how readily two partners part at equilibrium. Lower therefore signals a tighter complex.

Residues, ends and D or L forms follow the SMILES beside them. Primed or numbered codes have the meaning given here. No end group written: not given here. *: point of attachment. 5FAM = O=C1OC2(c3ccc(O)cc3Oc3cc(O)ccc32)c2ccc(C(=O)*)cc21; FITC′ = fluorescein isothiocyanate

For one assay, the target named is mutant Bcl-2/iso1 protein (Bcl-2/iso1 residues 1-34, Bcl-xL loop residues 29-44, Bcl-2/iso1 residues 92-207; plasmid C) (human). As to the kind of experiment: competitive fluorescence polarization, displacement of a fluorescein-labeled peptide probe from Bcl-2 (340 nM). Background: Fluorescence polarisation rises when a labelled molecule tumbles more slowly, as on binding a larger partner.
As for ALWAAQRYGRELRRMSDEFVDSFKK [peptide … (SEQ ID NO:21)], the Kd is 211 nM. Still for that read-out and setting: for NLWAAQRYGRELRRMSAEFVDSFKK [peptide … (SEQ ID NO:34)] the value was 762 nM; for NAWAAQRYGRELRRMSDEFVDSFKK [peptide … (SEQ ID NO:22)], 75 nM; for NLWAAQRYGRELRRMSDEFVDSFKK [peptide … (SEQ ID NO:20)], 14 nM.

NLWGAQRYGRELRRMSDEFVDSFKK [peptide … (SEQ ID NO:24)] showed a Kd of 159 nM. On the same count and under the same terms, the result for QRYGRELRRMSDEFVDSFKK [peptide … (SEQ ID NO:35)] reads 711 nM; that for NLWAAQRYGRELRRMSDEFVD [peptide … (SEQ ID NO:36)], 2330 nM. On to NLWAAQRYGRELRRMSDEFVDAFKK [peptide … (SEQ ID NO:26)], for which the Kd was found to be 26 nM. The same measure, in the same setting: the result for NLWAAQRYGREARRMSDEFVDSFKK [peptide … (SEQ ID NO:33)] reads 7480 nM. Same read-out and setting: the result for AAAAAQRYGRELRRMSDEFVDSFKK [peptide … (SEQ ID NO:17), not labeled] reads 74 nM. NLWAGQRYGRELRRMSDEFVDSFKK [peptide … (SEQ ID NO:25)] had a Kd of 105 nM.

Molecule GGGAAQRYGRELRRMSDEFVDSFKK [peptide … (SEQ ID NO:30)] returned a Kd of 63 nM.

Regarding NLWAAQRYARELRRMSDEFVAAFKK [peptide … (SEQ ID NO:32)], the Kd stood at 186 nM.

NLWAAQRYGRELRRMSDEFVDSAKK [peptide … (SEQ ID NO:27)] registered a Kd of 397 nM. The same measure, in the same setting: for NLAAAQRYGRELRRMSDEFVDSFKK [peptide … (SEQ ID NO:23)] the value was 39 nM; for NLWAAQRYGRELRRMSDEFVDSFAK [peptide … (SEQ ID NO:28)], 123 nM. On to NLPAAQRYGRELRRMSDEFVDSFKK [peptide … (SEQ ID NO:31)], for which the dissociation constant (Kd) stood at 54 nM.

As for NLWAAQRYGRELRRMSDEFVDSFKA [peptide … (SEQ ID NO:29)], the Kd turned out to be 22 nM.

For the next assay, the target named is mutant Bcl-2/iso2 protein (plasmid C construct with Ala96 to Thr96 and Gly110 to Arg110; plasmid D) (human). The assay is described as above.
NLWAAQRYGRELRRMSDEFVDSFKK [peptide … (SEQ ID NO:20)] registered a Kd of 8 nM. The same measure, in the same setting: the result for GQVGRQLAIIGDDINR [peptide … (SEQ ID NO:37)] reads 1600 nM.

For a further assay, the target named is mutant Bcl-2/iso1 protein (Bcl-2/iso1 residues 1-34, Bcl-xL loop residues 29-44, Bcl-2/iso1 residues 92-207; plasmid C) (human). As to the kind of experiment: fluorescence polarization, direct titration of the fluoresceinated peptide with Bcl-2.
5FAM-AAAAAQRYGRELRRMSDEFVDSKK [(5-FAM)-… (SEQ ID NO:18), fluorescein-labeled peptide probe (2)] registered a Kd of 50 nM. Still for that read-out and setting: for {FITC′}-AAQRYGRELRRMSDEFVR [(FITC)-… (SEQ ID NO:19), fluorescein-labeled peptide probe (3)] the value was 100 nM. Molecule 5FAM-AAAAAQRYGRELRRMSDEFVDSFKK [(5-FAM)-… (SEQ ID NO:17), fluorescein-labeled peptide probe (1)] had a Kd of 20 nM.

For another assay, the target named is T1, Bcl-2/iso1 (Homo sapiens, UniProt P10415, DEL35-91/INS34DVEENRTEAPEGTESE/R110G/T96A).
T1 construct: His tag (pET28b, thrombin-cleavable) (N, cleaved yes); made in house; host or cells: E. coli BL21(DE3)
T1 sequence (P10415 with tags, fused parts or gaps with the stated changes): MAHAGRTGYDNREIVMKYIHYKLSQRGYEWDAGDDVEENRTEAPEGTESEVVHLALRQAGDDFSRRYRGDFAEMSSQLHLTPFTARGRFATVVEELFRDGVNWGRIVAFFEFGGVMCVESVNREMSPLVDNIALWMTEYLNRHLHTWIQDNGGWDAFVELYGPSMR
In words: Fluorescence polarization titration of fluoresceinated probe peptides with Bcl-2/iso1. In kind it is binding. The procedure:
(3) (FITC)-AAQRYGRELRRMSDEFVR(SEQ ID NO:19). The dissociation constants of these fluoresceinated peptides from Bcl-2/iso1 are ˜20 nM, ˜50 nM, and ˜100 nM, respectively.
All titrations were automated by means of an Abbott clinical diagnostics instrument (IMx, FPIA mode) modified with a special protocol for performing titrations. A complete two-fold dilution series, comprised of twenty separate 2 mL samples, was obtained by delivering appropriate individual aliquots to the first seven tubes, aliquots from an intermediate diluted stock for the next seven, and one more intermediate dilution for the final six. […] The concentrations of the DMSO stock solutions of the peptide were 1–4 mM as determined by Trp absorbance (O.D. 280 nm), Tyr absorbance (O.D. 293), or amino acid analysis. […] Twenty 1.8 uL samples were prepared without fluoresceinatedpeptide and read as blanks. To each tube, 0.2 uL of a Bcl-2, fluoresceinatedpeptide mixture was added; the tubes were incubated for 5 min at 35° C., and then read for total intensity and polarization. […]
Steady state polarization data can be analyzed to extract the fractions of bound and free fluorescent ligand owing to the linear additivity of their anisotropy values, weighted by their respective fractional intensities (Lakowicz, JR. Principles of Fluorescence Spectroscopy. New York, N.Y.: Plenum Press (1983)). […]
The molecule `CSCC[C@H](NC(=O)[C@H](CCCNC(=N)N)NC(=O)[C@H](CCCNC(=N)N)NC(=O)[C@H](CC(C)C)NC(=O)[C@H](CCC(=O)O)NC(=O)[C@H](CCCNC(=N)N)NC(=O)CNC(=O)[C@H](Cc1ccc(O)cc1)NC(=O)[C@H](CCCNC(=N)N)NC(=O)[C@H](CCC(N)=O)NC(=O)[C@H](C)NC(=O)[C@H](C)NC(=O)[C@H](C)NC(=O)[C@H](C)NC(=O)[C@H](C)NC(=O)c1ccc2c(c1)C(=O)OC21c2ccc(O)cc2Oc2cc(O)ccc21)C(=O)N[C@@H](CO)C(=O)N[C@@H](CC(=O)O)C(=O)N[C@@H](CCC(=O)O)C(=O)N[C@@H](Cc1ccccc1)C(=O)N[C@H](C(=O)N[C@@H](CC(=O)O)C(=O)N[C@@H](CO)C(=O)N[C@@H](Cc1ccccc1)C(=O)N[C@@H](CCCCN)C(=O)N[C@@H](CCCCN)C(=O)O)C(C)C` (5FAM-AAAAAQRYGRELRRMSDEFVDSFKK-OH) displayed a Kd of about 20 nM. Same read-out and setting: the result for `CSCC[C@H](NC(=O)[C@H](CCCNC(=N)N)NC(=O)[C@H](CCCNC(=N)N)NC(=O)[C@H](CC(C)C)NC(=O)[C@H](CCC(=O)O)NC(=O)[C@H](CCCNC(=N)N)NC(=O)CNC(=O)[C@H](Cc1ccc(O)cc1)NC(=O)[C@H](CCCNC(=N)N)NC(=O)[C@H](CCC(N)=O)NC(=O)[C@H](C)NC(=O)[C@H](C)NC(=O)[C@H](C)NC(=O)[C@H](C)NC(=O)[C@H](C)NC(=O)c1ccc2c(c1)C(=O)OC21c2ccc(O)cc2Oc2cc(O)ccc21)C(=O)N[C@@H](CO)C(=O)N[C@@H](CC(=O)O)C(=O)N[C@@H](CCC(=O)O)C(=O)N[C@@H](Cc1ccccc1)C(=O)N[C@H](C(=O)N[C@@H](CC(=O)O)C(=O)N[C@@H](CO)C(=O)N[C@@H](CCCCN)C(=O)N[C@@H](CCCCN)C(=O)O)C(C)C` (5FAM-AAAAAQRYGRELRRMSDEFVDSKK-OH; C-terminus assumed) reads about 50 nM.

The next assay addresses T1, Bcl-2/iso1. As to the kind of experiment: Competitive fluorescence polarization assay, peptide binding to Bcl-2/iso1. The protocol: A competitive fluorescence polarization assay was used to measure the affinity of various peptides for Bcl-2/iso1 (see Table 2) or Bcl-2/iso2 (see Table 3). Competitive assays were performed using one of the following three fluorescein-labeled peptides as a probe:
All titrations were automated by means of an Abbott clinical diagnostics instrument (IMx, FPIA mode) modified with a special protocol for performing titrations. A complete two-fold dilution series, comprised of twenty separate 2 mL samples, was obtained by delivering appropriate individual aliquots to the first seven tubes, aliquots from an intermediate diluted stock for the next seven, and one more intermediate dilution for the final six. […] The final DMSO concentration for all samples never exceeded 1%. Twenty 1.8 uL samples were prepared without fluoresceinatedpeptide and read as blanks. To each tube, 0.2 uL of a Bcl-2, fluoresceinatedpeptide mixture was added; the tubes were incubated for 5 min at 35° C., and then read for total intensity and polarization.
With “NLWAAQRYGRELRRMSDEFVDAFKK [SEQ ID NO:26]”, binding was put at a Kd of 26 nM. Same read-out and setting: for “NLWGAQRYGRELRRMSDEFVDSFKK [SEQ ID NO:24]” the value was 159 nM; for “NLWAAQRYGRELRRMSAEFVDSFKK [SEQ ID NO:34]”, 762 nM; for “NLWAAQRYGRELRRMSDEFVDSAKK [SEQ ID NO:27]”, 397 nM. Still for that read-out and setting: the result for “NLAAAQRYGRELRRMSDEFVDSFKK [SEQ ID NO:23]” reads 39 nM. On the same count and under the same terms, the result for “NLWAAQRYGRELRRMSDEFVDSFKA [SEQ ID NO:29]” reads 22 nM; that for “NLPAAQRYGRELRRMSDEFVDSFKK [SEQ ID NO:31]”, 54 nM; that for “NLWAAQRYARELRRMSDEFVAAFKK [SEQ ID NO:32]”, 186 nM.

“NLWAAQRYGREARRMSDEFVDSFKK [SEQ ID NO:33]” showed a Kd of 7480 nM.

As to QRYGRELRRMSDEFVDSFKK [SEQ ID NO:35], the affinity, expressed as Kd, was 711 nM.

“NLWAGQRYGRELRRMSDEFVDSFKK [SEQ ID NO:25]”: the Kd came out at 105 nM. On the same count and under the same terms, the result for “NAWAAQRYGRELRRMSDEFVDSFKK [SEQ ID NO:22]” reads 75 nM; that for “ALWAAQRYGRELRRMSDEFVDSFKK [SEQ ID NO:21]”, 211 nM.

As to “GGGAAQRYGRELRRMSDEFVDSFKK [SEQ ID NO:30]”, the Kd was found to be 63 nM.

As for NLWAAQRYGRELRRMSDEFVD [SEQ ID NO:36], the Kd was determined as 2330 nM. The molecule “AAAAAQRYGRELRRMSDEFVDSFKK [SEQ ID NO:17]” registered a Kd of 74 nM. “NLWAAQRYGRELRRMSDEFVDSFAK [SEQ ID NO:28]” came in with a Kd of 123 nM.
